Test results reported in patent US6001988.

Columns and labels:
[1] = target: T1, L-selectin (LS-Rg) (Homo sapiens) (UniProt P14151); assay: filter
T1 sequence: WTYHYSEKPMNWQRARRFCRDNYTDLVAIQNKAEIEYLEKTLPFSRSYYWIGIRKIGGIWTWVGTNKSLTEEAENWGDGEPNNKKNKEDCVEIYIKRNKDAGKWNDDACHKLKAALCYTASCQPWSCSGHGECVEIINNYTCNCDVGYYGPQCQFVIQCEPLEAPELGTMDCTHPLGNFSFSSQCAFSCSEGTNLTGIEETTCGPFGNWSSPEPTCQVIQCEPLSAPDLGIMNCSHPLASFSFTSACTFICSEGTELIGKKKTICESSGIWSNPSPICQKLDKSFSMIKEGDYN

CD22beta (CD22beta-Rg) = CD22beta (CD22beta-Rg) (UniProt P20273); assay: filter
[2] = target: T2, E-selectin (ES-Rg) (Homo sapiens) (UniProt P16581); assay: filter
T2 sequence: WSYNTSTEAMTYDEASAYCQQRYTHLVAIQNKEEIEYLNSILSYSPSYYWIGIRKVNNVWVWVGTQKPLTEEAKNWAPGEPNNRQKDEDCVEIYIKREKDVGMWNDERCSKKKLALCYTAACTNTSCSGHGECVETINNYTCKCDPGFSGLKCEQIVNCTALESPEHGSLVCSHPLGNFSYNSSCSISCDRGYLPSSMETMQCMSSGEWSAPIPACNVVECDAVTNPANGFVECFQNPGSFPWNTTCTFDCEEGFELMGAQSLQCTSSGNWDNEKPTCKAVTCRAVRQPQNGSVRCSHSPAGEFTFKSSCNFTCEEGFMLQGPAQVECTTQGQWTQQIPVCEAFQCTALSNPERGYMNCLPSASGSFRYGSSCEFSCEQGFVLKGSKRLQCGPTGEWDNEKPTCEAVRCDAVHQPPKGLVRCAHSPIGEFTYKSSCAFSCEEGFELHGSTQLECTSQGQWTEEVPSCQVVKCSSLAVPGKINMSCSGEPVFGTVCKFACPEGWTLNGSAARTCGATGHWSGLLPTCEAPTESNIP

[3] = target: T3, P-selectin (PS-Rg) (Homo sapiens) (UniProt P16109); assay: filter
T3 sequence: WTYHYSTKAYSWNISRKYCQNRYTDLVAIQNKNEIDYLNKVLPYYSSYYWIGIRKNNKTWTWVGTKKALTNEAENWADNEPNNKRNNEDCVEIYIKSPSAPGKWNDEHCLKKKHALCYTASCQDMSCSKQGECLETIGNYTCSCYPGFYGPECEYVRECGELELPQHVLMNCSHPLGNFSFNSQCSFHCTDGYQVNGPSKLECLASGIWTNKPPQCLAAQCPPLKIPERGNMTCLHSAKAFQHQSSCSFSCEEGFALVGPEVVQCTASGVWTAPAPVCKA

[4] = target: T4, L-selectin on PBMC (Homo sapiens) (UniProt P14151); conditions: 2'-NH2 all C and U; PBMC binding on ice; competed by DREG-56 anti-L-selectin antibody
T4 sequence: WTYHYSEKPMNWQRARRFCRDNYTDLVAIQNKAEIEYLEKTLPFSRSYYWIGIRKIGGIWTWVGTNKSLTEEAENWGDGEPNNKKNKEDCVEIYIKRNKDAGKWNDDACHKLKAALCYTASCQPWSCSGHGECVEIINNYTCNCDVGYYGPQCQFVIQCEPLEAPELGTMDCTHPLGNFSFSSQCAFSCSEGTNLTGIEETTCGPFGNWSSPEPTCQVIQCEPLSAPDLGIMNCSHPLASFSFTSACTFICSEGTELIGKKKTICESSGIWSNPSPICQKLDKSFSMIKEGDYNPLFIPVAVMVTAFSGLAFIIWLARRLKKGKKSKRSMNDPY

[5] = target: T1, L-selectin (LS-Rg) (Homo sapiens); assay: inhibition; conditions: 2'-NH2 all C and U; inhibits LS-Rg binding to immobilized sialyl-Lewis X, room temp, Ca/Mg
[6] = target: T5, wheat germ agglutinin (WGA) (Triticum vulgare) (UniProt P10968); assay: filter
T5 sequence: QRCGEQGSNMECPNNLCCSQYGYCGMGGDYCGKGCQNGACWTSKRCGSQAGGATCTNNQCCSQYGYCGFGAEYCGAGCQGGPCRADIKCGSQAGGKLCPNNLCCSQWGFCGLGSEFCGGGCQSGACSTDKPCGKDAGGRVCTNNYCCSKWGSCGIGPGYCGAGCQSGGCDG

[7] = system: Datura stramonium lectin (Datura stramonium); assay: filter; conditions: 2'-NH2 all C and U
[8] = 2'-NH2 on all C and U, <5% binding at highest protein, 4 C, HSMC
[9] = 2'-NH2 all C and U, HBSS, room temp

Sequence of CD22beta (CD22beta-Rg) (P20273 20-687): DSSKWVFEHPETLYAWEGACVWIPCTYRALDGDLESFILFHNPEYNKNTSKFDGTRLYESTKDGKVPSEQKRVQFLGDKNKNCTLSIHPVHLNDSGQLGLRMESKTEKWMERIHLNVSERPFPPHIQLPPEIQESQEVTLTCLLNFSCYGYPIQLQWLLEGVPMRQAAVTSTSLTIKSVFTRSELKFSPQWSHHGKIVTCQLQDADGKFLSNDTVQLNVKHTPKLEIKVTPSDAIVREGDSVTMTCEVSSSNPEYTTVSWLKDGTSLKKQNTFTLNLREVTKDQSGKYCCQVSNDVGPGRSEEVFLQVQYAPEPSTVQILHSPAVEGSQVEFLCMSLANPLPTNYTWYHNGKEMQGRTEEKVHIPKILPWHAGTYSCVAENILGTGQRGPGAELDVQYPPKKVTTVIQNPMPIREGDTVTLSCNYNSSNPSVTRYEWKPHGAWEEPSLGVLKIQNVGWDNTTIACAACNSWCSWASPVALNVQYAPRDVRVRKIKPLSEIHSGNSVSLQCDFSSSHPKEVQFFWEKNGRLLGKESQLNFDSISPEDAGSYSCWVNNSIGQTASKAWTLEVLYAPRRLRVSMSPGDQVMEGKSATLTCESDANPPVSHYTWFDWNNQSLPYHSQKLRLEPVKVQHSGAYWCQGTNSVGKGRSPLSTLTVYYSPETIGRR

Sequence: GGGAGGACGAUGCGGCCGUACAUGGUAARCCUCGAAGGAUUCCCGGGAUGAUCCCCAGACGACUCGCCCGA [F14.27]
- Kd ([1]; 2'-NH2 all C and U, 4 C, HSMC): 145 nM

Sequence: GGGAGGACGAUGCGGAAGUGAAGCUAAAGCGGAGGGCCAUUCAGUUUCNCACCACAGACGACUCGCCCGA [F14.2]
- Kd (CD22beta (CD22beta-Rg); [8]): > 20 µM
- Kd ([2]; 2'-NH2 all C and U, 4 C, HSMC): 1.9 µM
- Kd ([1]; 2'-NH2 all C and U, 4 C, HSMC, 7.2 nM at room temp): 1.8 nM
- Kd ([3]; 2'-NH2 all C and U, 4 C, HSMC): 0.45 µM

Sequence: GGGAGGACGAUGCGGUAACAACAAUCAAGGCGGGUUYACCGCCCCAGUAUGAGUACAGACGACUCGCCCGA [F14.12]
- Kd (CD22beta (CD22beta-Rg); 2'-NH2 all C and U, <5% bound at up to 660 nM, 4 C): > 20 µM
- Kd ([2]; 2'-NH2 all C and U, 4 C, HSMC): 0.047 µM
- Kd ([1]; 2'-NH2 all C and U, 4 C, HSMC, Table IX prints 5.8 pM (fraction 0.68, low affinity Kd 16.2 nM), 1.7 nM at room temp): 0.06 nM
- Kd ([3]; 2'-NH2 all C and U, 4 C, HSMC): 0.91 µM
- Kd [4]: 0.0013 µM
- IC50 [5]: 0.01 µM

Sequence: GGGAAAAGCGAAUCAUACACAAGANNNNNNNNNNNNNNNNNNNNNNNNNNNNNNNNNNNNNNNNNNNNNNNNNNGCUCCGCCAGAGACCAACCGAGAA [random 50N9 RNA pool]
- Kd ([6]; 2'-NH2 all C and U, no binding at 36 uM WGA monomer): > 4000 µM

Sequence: CTACCTACGATCTGACTAGCCGAGGTAGTCGTTATAGGGTRCRCACGACACAAARCRGTRGCTTACTCTCATGTAGTTCC [127]
- Kd (CD22beta (CD22beta-Rg); <1% binding at 700 nM, room temp): > 100 µM
- Kd ([2]; room temp, Ca/Mg buffer): 1.3 µM
- Kd ([1]; room temp, 890 pM at 37 C): 1 nM
- Kd ([3]; room temp, Ca/Mg buffer): 0.78 µM
- Kd ([6]; <3% binding at 1.4 µM, room temp): > 100 µM

Sequence: GGGAAAAGCGAAUCAUACACAAGAGUAGGAGGUUCCAUCACCAGGACUCGGCGGGAACGGAAGGUGAUGSGCUCCGCCAGAGACCAACCGAGAA [11.35]
- Kd [6, 9]: 0.09 µM

Sequence: GGGAAAAGCGAAUCAUACACAAGAAAGGGAUGGGAUUGGGACGAGCGGCCAAGACUCGGCGGGAACGAAGGGUCCGCUCCGCCAGAGACCAACCGAGAA [6.8]
- Kd ([7]; <5% bound at 1 uM protein): > 20 µM

Sequence: GGGAAAAGCGAAUCAUACACAAGAUUGGUCGUACUGGACAGAGCCGUGGUAGAGGGAUUGGGACAAAGUGUCAGCUCCGCCAGAGACCAACCGAGAA [11.20]
- Kd ([7]; HBSS, room temp): 11.2 µM

Sequence: GGGAAAAGCGAAUCAUACACAAGACGGCUGUGUGGUGUUGGAGCGUCAUAGUAGGAGUCGUCACGAACCAAGGCGCUCCGCCAGAGACCAACCGAGAA [11.24]
- Kd ([7]; <5% bound at 1 uM protein): > 20 µM

Sequence: GGGAAAAGCGAAUCAUACACAAGAGAGGUGRAUGGGAGAGUGGAGCCCGGGUGACUCGAGGAUUCCCGUGCUCCGCCAGAGACCAACCGAGAA [11.3]
- Kd [6, 9]: 0.41 µM

Sequence: GGGAAAAGCGAAUCAUACACAAGACAGCGGCGGAGUCAGUGAAAGCGUGGGGGGYGCGGGAGGUCUACCCUGACGCUCCGCCAGAGACCAACCGAGAA [6.14]
- Kd ([6]; 2'-NH2 all C and U, <5% bound at 1 uM WGA): > 20 µM

Sequence: CTACCTACGATCTGACTAGCNNNNNNNNNNNNNNNNNNNNNNNNNNNNNNNNNNNNNNNNGCTTACTCTCATGTAGTTCC [random 40BH ssDNA pool]
- Kd ([1]; estimate for random ssDNA): 10000 nM

Sequence: GGGAGGACGAUGCGGNNNNNNNNNNNNNNNNNNNNNNNNNNNNNNNNNNNNNNNNCAGACGACUCGCCCGA [random 40N7 RNA pool]
- Kd ([1]; 2'-NH2 all C and U, estimate for random RNA): 10000 nM

Sequence: GGGAAAAGCGAAUCAUACACAAGACUGGCAAGRAGUGCGUGAGGGUACGUUAGGGGUGUUUGGGCCGAUCGCAUGCUCCGCCAGAGACCAACCGAGAA [11.7]
- Kd [6, 9]: 0.016 µM

Sequence: GGGAGGACGAUGCGGAAGUGAAGCUAAAGSGGAGGGCCACUCAGAAACGCACCACAGACGACUCGCCCGA [F14.13]
- Kd ([1]; 2'-NH2 all C and U, 4 C, HSMC, biphasic, fraction 0.74, low affinity Kd 270 nM): 1.3 nM

Sequence: GGGAGGACGAUGCGGUCCAGAGCGUGAAGAUCAACGUCCCGGNGUCGAAGACAGACGACUCGCCCGA [F14.70]
- Kd (CD22beta (CD22beta-Rg); [8]): > 20 µM
- Kd ([2]; 2'-NH2 all C and U, 4 C, HSMC): 5.9 µM
- Kd ([1]; 2'-NH2 all C and U, 4 C, HSMC, biphasic, fraction 0.75, low affinity Kd 254 nM, 7.8 nM at room temp): 2 nM

Sequence: CTACCTACGATCTGACTAGCCGAGGATCTGATACTTATTGAACATAMCCGCACNCAGGCTTGCTTACTCTCATGTAGTTCC [102]
- Kd ([1]; 37 C, room temp not determined): 7.9 nM
